B1: Speckle-type POZ protein (Homo sapiens), O43791 (parent)
chain: MSRVPSPPPPAEMSSGPVAESWCYTQIKVVKFSYMWTINNFSFCREEMGEVIKSSTFSSGANDKLKWCLRVNPKGLDEESKDYLSLYLLLVSCPKSEVRAKFKFSILNAKGEETKAMESQRAYRFVQGKDWGFKKFIRRDFLLDEANGLLPDDKLTLFCEVSVVQDSVNISGQNTMNMVKVPECRLADELGGLWENSRFTDCCLCVAGQEFQAHKAILAARSPVFSAMFEHEMEESKKNRVEINDVEPEVFKEMMCFIYTGKAPNLDKMADDLLAAADKYALERLKVMCEDALCSNLSVENAAEILILADLHSADQLKTQAVDFINYHASDVLETSGWKSMVVSHPHLVAEAYRSLASAQCPFLGPPRKRLKQS

Variants of: B1
Conditions: with e2f5_human E2F5, Q15329
Chain of e2f5_human E2F5, Q15329 (Q15329 whole entry): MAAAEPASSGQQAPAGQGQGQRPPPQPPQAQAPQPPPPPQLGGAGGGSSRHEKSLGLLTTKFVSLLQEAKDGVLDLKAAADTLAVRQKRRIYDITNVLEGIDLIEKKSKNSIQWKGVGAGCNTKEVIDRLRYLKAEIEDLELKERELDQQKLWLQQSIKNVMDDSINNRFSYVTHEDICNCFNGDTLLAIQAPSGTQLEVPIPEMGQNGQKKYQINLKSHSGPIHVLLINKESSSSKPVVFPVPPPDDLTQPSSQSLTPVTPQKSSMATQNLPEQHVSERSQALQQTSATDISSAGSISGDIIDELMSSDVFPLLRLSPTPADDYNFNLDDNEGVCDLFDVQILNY

effect of a mutation on the interaction	Variant
with no effect	MSRVPSPPPPAEMSSGPVAESWCYTQIKVVKFSYMWTINNFSFCREEMGEVIKSSTFSSGANDKLKWCLRVNPKGLDEESKDYLSLYLLLVSCPKSEVRAKFKFSILNAKGEETKAMESQRAYRFVQGKDWGLKKFIRRDFLLDEANGLLPDDKLTLFCEVSVVQDSVNISGQNTMNMVKVPECRLADELGGLWENSRFTDCCLCVAGQEFQAHKAILAARSPVFSAMFEHEMEESKKNRVEINDVEPEVFKEMMCFIYTGKAPNLDKMADDLLAAADKYALERLKVMCEDALCSNLSVENAAEILILADLHSADQLKTQAVDFINYHASDVLETSGWKSMVVSHPHLVAEAYRSLASAQCPFLGPPRKRLKQS [F133L]

Variants of: B1
Conditions: with e2f6_human E2F6, O75461
Chain of e2f6_human E2F6, O75461 (O75461 whole entry): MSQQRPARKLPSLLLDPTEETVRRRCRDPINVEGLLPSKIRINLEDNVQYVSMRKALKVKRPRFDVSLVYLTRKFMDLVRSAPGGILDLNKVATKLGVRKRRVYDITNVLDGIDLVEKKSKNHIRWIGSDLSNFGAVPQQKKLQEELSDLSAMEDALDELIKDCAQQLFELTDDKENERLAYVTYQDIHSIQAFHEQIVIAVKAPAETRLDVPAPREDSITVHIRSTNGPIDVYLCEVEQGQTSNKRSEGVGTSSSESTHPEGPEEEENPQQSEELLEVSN

effect of a mutation on the interaction	Variant
with no effect	MSRVPSPPPPAEMSSGPVAESWCYTQIKVVKFSYMWTINNFSFCREEMGEVIKSSTFSSGANDKLKWCLRVNPKGLDEESKDYLSLYLLLVSCPKSEVRAKFKFSILNAKGEETKAMESQRAYRFVQGKDWGLKKFIRRDFLLDEANGLLPDDKLTLFCEVSVVQDSVNISGQNTMNMVKVPECRLADELGGLWENSRFTDCCLCVAGQEFQAHKAILAARSPVFSAMFEHEMEESKKNRVEINDVEPEVFKEMMCFIYTGKAPNLDKMADDLLAAADKYALERLKVMCEDALCSNLSVENAAEILILADLHSADQLKTQAVDFINYHASDVLETSGWKSMVVSHPHLVAEAYRSLASAQCPFLGPPRKRLKQS [F133L]

Variants of: B1
Conditions: with e2f8_human E2F8, A0AVK6

effect of a mutation on the interaction	Variant
with no effect	MSRVPSPPPPAEMSSGPVAESWCYTQIKVVKFSYMWTINNFSFCREEMGEVIKSSTFSSGANDKLKWCLRVNPKGLDEESKDYLSLYLLLVSCPKSEVRAKFKFSILNAKGEETKAMESQRAYRFVQGKDWGLKKFIRRDFLLDEANGLLPDDKLTLFCEVSVVQDSVNISGQNTMNMVKVPECRLADELGGLWENSRFTDCCLCVAGQEFQAHKAILAARSPVFSAMFEHEMEESKKNRVEINDVEPEVFKEMMCFIYTGKAPNLDKMADDLLAAADKYALERLKVMCEDALCSNLSVENAAEILILADLHSADQLKTQAVDFINYHASDVLETSGWKSMVVSHPHLVAEAYRSLASAQCPFLGPPRKRLKQS [F133L]

Variants of: B1
Conditions: with if4e_human EIF4E

effect of a mutation on the interaction	Variant
with no effect	MSRVPSPPPPAEMSSGPVAESWCYTQIKVVKFSYMWTINNFSFCREEMGEVIKSSTFSSGANDKLKWCLRVNPKGLDEESKDYLSLYLLLVSCPKSEVRAKFKFSILNAKGEETKAMESQRAYRFVQGKDWGLKKFIRRDFLLDEANGLLPDDKLTLFCEVSVVQDSVNISGQNTMNMVKVPECRLADELGGLWENSRFTDCCLCVAGQEFQAHKAILAARSPVFSAMFEHEMEESKKNRVEINDVEPEVFKEMMCFIYTGKAPNLDKMADDLLAAADKYALERLKVMCEDALCSNLSVENAAEILILADLHSADQLKTQAVDFINYHASDVLETSGWKSMVVSHPHLVAEAYRSLASAQCPFLGPPRKRLKQS [F133L]

Variants of: B1
Conditions: with epha7_human EPHA7, Q15375

effect of a mutation on the interaction	Variant
with no effect	MSRVPSPPPPAEMSSGPVAESWCYTQIKVVKFSYMWTINNFSFCREEMGEVIKSSTFSSGANDKLKWCLRVNPKGLDEESKDYLSLYLLLVSCPKSEVRAKFKFSILNAKGEETKAMESQRAYRFVQGKDWGLKKFIRRDFLLDEANGLLPDDKLTLFCEVSVVQDSVNISGQNTMNMVKVPECRLADELGGLWENSRFTDCCLCVAGQEFQAHKAILAARSPVFSAMFEHEMEESKKNRVEINDVEPEVFKEMMCFIYTGKAPNLDKMADDLLAAADKYALERLKVMCEDALCSNLSVENAAEILILADLHSADQLKTQAVDFINYHASDVLETSGWKSMVVSHPHLVAEAYRSLASAQCPFLGPPRKRLKQS [F133L]

Variants of: B1
Conditions: with ephb1_human EPHB1, P54762
Chain of ephb1_human EPHB1, P54762 (P54762 whole entry): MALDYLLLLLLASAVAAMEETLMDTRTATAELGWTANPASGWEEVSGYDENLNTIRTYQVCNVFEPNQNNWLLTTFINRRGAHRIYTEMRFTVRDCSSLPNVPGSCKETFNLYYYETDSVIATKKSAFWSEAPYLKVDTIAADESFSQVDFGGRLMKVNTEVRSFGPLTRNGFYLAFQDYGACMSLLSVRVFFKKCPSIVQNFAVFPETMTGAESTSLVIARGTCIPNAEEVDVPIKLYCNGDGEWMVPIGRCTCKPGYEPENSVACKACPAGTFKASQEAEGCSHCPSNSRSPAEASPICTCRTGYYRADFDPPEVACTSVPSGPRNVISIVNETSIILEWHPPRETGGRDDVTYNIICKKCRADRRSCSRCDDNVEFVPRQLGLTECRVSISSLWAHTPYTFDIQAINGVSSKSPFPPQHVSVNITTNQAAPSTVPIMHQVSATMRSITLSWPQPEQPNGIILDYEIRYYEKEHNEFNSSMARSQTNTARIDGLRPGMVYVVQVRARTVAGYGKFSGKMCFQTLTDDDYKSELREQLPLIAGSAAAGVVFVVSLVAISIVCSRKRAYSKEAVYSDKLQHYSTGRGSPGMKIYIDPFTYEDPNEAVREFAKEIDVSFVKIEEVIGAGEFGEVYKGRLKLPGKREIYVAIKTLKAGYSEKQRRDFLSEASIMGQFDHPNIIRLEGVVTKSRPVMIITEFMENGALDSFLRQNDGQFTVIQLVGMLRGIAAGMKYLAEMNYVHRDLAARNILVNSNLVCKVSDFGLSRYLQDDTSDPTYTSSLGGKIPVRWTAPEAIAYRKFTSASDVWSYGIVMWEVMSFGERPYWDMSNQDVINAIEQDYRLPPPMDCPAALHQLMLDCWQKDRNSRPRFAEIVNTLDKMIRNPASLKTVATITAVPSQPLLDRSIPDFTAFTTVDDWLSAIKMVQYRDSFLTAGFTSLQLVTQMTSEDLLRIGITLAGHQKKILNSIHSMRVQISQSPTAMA

effect of a mutation on the interaction	Variant
with no effect	MSRVPSPPPPAEMSSGPVAESWCYTQIKVVKFSYMWTINNFSFCREEMGEVIKSSTFSSGANDKLKWCLRVNPKGLDEESKDYLSLYLLLVSCPKSEVRAKFKFSILNAKGEETKAMESQRAYRFVQGKDWGLKKFIRRDFLLDEANGLLPDDKLTLFCEVSVVQDSVNISGQNTMNMVKVPECRLADELGGLWENSRFTDCCLCVAGQEFQAHKAILAARSPVFSAMFEHEMEESKKNRVEINDVEPEVFKEMMCFIYTGKAPNLDKMADDLLAAADKYALERLKVMCEDALCSNLSVENAAEILILADLHSADQLKTQAVDFINYHASDVLETSGWKSMVVSHPHLVAEAYRSLASAQCPFLGPPRKRLKQS [F133L]

Variants of: B1
Conditions: with erbb3_human ERBB3, P21860

effect of a mutation on the interaction	Variant
with no effect	MSRVPSPPPPAEMSSGPVAESWCYTQIKVVKFSYMWTINNFSFCREEMGEVIKSSTFSSGANDKLKWCLRVNPKGLDEESKDYLSLYLLLVSCPKSEVRAKFKFSILNAKGEETKAMESQRAYRFVQGKDWGLKKFIRRDFLLDEANGLLPDDKLTLFCEVSVVQDSVNISGQNTMNMVKVPECRLADELGGLWENSRFTDCCLCVAGQEFQAHKAILAARSPVFSAMFEHEMEESKKNRVEINDVEPEVFKEMMCFIYTGKAPNLDKMADDLLAAADKYALERLKVMCEDALCSNLSVENAAEILILADLHSADQLKTQAVDFINYHASDVLETSGWKSMVVSHPHLVAEAYRSLASAQCPFLGPPRKRLKQS [F133L]

Variants of: B1
Conditions: with erbb4_human ERBB4, Q15303
Chain of erbb4_human ERBB4, Q15303 (Q15303 whole entry): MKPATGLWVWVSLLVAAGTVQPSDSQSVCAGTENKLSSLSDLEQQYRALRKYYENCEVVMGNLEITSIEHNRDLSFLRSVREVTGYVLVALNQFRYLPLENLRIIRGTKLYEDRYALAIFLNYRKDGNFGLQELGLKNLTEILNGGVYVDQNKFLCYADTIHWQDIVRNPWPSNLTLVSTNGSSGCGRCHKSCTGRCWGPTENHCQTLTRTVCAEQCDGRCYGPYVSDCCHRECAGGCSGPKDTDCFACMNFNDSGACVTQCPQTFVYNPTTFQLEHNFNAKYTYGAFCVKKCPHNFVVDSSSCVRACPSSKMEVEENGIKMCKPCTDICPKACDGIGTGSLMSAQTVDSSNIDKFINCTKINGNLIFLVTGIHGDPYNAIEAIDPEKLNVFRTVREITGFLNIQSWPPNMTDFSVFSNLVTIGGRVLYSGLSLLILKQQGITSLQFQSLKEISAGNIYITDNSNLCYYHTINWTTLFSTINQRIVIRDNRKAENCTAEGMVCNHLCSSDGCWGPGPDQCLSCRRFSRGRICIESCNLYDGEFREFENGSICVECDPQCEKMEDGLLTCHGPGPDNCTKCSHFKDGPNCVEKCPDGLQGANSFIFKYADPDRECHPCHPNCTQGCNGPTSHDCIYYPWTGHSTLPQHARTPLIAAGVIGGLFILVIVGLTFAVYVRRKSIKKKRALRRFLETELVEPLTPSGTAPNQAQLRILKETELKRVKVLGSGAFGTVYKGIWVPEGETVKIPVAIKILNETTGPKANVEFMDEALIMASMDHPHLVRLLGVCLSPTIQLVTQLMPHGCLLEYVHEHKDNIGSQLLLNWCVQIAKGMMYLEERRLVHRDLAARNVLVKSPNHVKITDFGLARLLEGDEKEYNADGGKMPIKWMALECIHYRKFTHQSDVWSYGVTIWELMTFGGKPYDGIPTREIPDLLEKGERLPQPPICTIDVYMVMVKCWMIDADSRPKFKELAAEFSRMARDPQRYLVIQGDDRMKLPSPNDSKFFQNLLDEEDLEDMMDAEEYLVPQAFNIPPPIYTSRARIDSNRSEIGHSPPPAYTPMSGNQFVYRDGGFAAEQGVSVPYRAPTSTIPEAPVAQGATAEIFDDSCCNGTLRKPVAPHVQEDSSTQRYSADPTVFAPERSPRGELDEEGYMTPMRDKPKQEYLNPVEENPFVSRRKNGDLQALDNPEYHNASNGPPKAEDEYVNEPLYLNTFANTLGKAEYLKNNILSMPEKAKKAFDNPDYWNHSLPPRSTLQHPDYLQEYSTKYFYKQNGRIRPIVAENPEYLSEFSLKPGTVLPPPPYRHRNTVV

effect of a mutation on the interaction	Variant
with no effect	MSRVPSPPPPAEMSSGPVAESWCYTQIKVVKFSYMWTINNFSFCREEMGEVIKSSTFSSGANDKLKWCLRVNPKGLDEESKDYLSLYLLLVSCPKSEVRAKFKFSILNAKGEETKAMESQRAYRFVQGKDWGLKKFIRRDFLLDEANGLLPDDKLTLFCEVSVVQDSVNISGQNTMNMVKVPECRLADELGGLWENSRFTDCCLCVAGQEFQAHKAILAARSPVFSAMFEHEMEESKKNRVEINDVEPEVFKEMMCFIYTGKAPNLDKMADDLLAAADKYALERLKVMCEDALCSNLSVENAAEILILADLHSADQLKTQAVDFINYHASDVLETSGWKSMVVSHPHLVAEAYRSLASAQCPFLGPPRKRLKQS [F133L]

Variants of: B1
Conditions: with esr1_human ESR1, P03372
Chain of esr1_human ESR1, P03372 (P03372 whole entry): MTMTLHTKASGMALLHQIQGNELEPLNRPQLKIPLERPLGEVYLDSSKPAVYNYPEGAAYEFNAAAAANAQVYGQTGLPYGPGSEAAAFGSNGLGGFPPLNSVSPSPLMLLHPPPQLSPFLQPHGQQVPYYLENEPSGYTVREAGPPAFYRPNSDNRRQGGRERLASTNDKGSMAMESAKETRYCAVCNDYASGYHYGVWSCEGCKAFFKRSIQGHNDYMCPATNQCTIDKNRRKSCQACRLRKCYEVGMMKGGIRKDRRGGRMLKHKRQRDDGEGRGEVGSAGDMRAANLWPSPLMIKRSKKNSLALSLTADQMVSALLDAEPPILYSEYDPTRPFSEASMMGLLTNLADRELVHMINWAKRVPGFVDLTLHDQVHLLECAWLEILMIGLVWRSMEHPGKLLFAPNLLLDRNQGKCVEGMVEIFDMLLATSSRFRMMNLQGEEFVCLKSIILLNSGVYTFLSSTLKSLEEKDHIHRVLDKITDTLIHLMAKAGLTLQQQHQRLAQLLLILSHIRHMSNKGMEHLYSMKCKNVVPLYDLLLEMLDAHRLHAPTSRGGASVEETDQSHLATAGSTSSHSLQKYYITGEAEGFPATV

effect of a mutation on the interaction	Variant
with no effect	MSRVPSPPPPAEMSSGPVAESWCYTQIKVVKFSYMWTINNFSFCREEMGEVIKSSTFSSGANDKLKWCLRVNPKGLDEESKDYLSLYLLLVSCPKSEVRAKFKFSILNAKGEETKAMESQRAYRFVQGKDWGLKKFIRRDFLLDEANGLLPDDKLTLFCEVSVVQDSVNISGQNTMNMVKVPECRLADELGGLWENSRFTDCCLCVAGQEFQAHKAILAARSPVFSAMFEHEMEESKKNRVEINDVEPEVFKEMMCFIYTGKAPNLDKMADDLLAAADKYALERLKVMCEDALCSNLSVENAAEILILADLHSADQLKTQAVDFINYHASDVLETSGWKSMVVSHPHLVAEAYRSLASAQCPFLGPPRKRLKQS [F133L]

Variants of: B1
Conditions: with etv1_human ETV1, P50549
Chain of etv1_human ETV1, P50549 (P50549 whole entry): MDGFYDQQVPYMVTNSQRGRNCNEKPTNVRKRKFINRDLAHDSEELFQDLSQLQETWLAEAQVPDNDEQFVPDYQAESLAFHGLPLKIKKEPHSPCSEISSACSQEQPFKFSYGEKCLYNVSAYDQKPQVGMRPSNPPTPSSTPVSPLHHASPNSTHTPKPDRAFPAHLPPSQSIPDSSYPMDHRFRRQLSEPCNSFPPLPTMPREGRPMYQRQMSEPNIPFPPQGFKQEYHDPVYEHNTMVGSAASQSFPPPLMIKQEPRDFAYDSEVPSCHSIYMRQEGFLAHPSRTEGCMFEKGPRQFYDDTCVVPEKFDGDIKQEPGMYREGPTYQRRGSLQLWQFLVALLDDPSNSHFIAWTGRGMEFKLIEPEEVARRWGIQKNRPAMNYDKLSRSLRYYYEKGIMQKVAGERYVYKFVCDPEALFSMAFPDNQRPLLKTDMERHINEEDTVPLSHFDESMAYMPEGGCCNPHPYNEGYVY

effect of a mutation on the interaction	Variant
with no effect	MSRVPSPPPPAEMSSGPVAESWCYTQIKVVKFSYMWTINNFSFCREEMGEVIKSSTFSSGANDKLKWCLRVNPKGLDEESKDYLSLYLLLVSCPKSEVRAKFKFSILNAKGEETKAMESQRAYRFVQGKDWGLKKFIRRDFLLDEANGLLPDDKLTLFCEVSVVQDSVNISGQNTMNMVKVPECRLADELGGLWENSRFTDCCLCVAGQEFQAHKAILAARSPVFSAMFEHEMEESKKNRVEINDVEPEVFKEMMCFIYTGKAPNLDKMADDLLAAADKYALERLKVMCEDALCSNLSVENAAEILILADLHSADQLKTQAVDFINYHASDVLETSGWKSMVVSHPHLVAEAYRSLASAQCPFLGPPRKRLKQS [F133L]

Variants of: B1
Conditions: with ezh1_human EZH1, Q92800
Chain of ezh1_human EZH1, Q92800 (Q92800 whole entry): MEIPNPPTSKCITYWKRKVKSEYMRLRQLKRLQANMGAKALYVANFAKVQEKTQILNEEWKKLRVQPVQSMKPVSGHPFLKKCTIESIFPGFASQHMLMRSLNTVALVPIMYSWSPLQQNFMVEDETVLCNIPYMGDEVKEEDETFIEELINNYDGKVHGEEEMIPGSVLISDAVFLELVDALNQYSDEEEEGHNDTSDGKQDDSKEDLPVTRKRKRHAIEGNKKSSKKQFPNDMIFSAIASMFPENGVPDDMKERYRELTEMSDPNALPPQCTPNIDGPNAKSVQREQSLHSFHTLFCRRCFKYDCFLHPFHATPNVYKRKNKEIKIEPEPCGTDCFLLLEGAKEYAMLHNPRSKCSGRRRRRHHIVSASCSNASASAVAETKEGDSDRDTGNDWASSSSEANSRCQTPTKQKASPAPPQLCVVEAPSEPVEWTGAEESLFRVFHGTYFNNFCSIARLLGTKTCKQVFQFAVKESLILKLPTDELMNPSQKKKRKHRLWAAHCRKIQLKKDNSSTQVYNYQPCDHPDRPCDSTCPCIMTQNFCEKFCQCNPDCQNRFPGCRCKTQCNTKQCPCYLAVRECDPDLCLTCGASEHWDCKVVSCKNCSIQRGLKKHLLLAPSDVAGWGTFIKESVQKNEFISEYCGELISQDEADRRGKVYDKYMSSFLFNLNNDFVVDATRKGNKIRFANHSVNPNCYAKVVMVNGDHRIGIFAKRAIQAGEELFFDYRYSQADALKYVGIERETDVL

effect of a mutation on the interaction	Variant
with no effect	MSRVPSPPPPAEMSSGPVAESWCYTQIKVVKFSYMWTINNFSFCREEMGEVIKSSTFSSGANDKLKWCLRVNPKGLDEESKDYLSLYLLLVSCPKSEVRAKFKFSILNAKGEETKAMESQRAYRFVQGKDWGLKKFIRRDFLLDEANGLLPDDKLTLFCEVSVVQDSVNISGQNTMNMVKVPECRLADELGGLWENSRFTDCCLCVAGQEFQAHKAILAARSPVFSAMFEHEMEESKKNRVEINDVEPEVFKEMMCFIYTGKAPNLDKMADDLLAAADKYALERLKVMCEDALCSNLSVENAAEILILADLHSADQLKTQAVDFINYHASDVLETSGWKSMVVSHPHLVAEAYRSLASAQCPFLGPPRKRLKQS [F133L]

Variants of: B1
Conditions: with ezh2_human EZH2, Q15910

effect of a mutation on the interaction	Variant
with no effect	MSRVPSPPPPAEMSSGPVAESWCYTQIKVVKFSYMWTINNFSFCREEMGEVIKSSTFSSGANDKLKWCLRVNPKGLDEESKDYLSLYLLLVSCPKSEVRAKFKFSILNAKGEETKAMESQRAYRFVQGKDWGLKKFIRRDFLLDEANGLLPDDKLTLFCEVSVVQDSVNISGQNTMNMVKVPECRLADELGGLWENSRFTDCCLCVAGQEFQAHKAILAARSPVFSAMFEHEMEESKKNRVEINDVEPEVFKEMMCFIYTGKAPNLDKMADDLLAAADKYALERLKVMCEDALCSNLSVENAAEILILADLHSADQLKTQAVDFINYHASDVLETSGWKSMVVSHPHLVAEAYRSLASAQCPFLGPPRKRLKQS [F133L]

Variants of: B1
Conditions: with facd2_human FANCD2, Q9BXW9

effect of a mutation on the interaction	Variant
with no effect	MSRVPSPPPPAEMSSGPVAESWCYTQIKVVKFSYMWTINNFSFCREEMGEVIKSSTFSSGANDKLKWCLRVNPKGLDEESKDYLSLYLLLVSCPKSEVRAKFKFSILNAKGEETKAMESQRAYRFVQGKDWGLKKFIRRDFLLDEANGLLPDDKLTLFCEVSVVQDSVNISGQNTMNMVKVPECRLADELGGLWENSRFTDCCLCVAGQEFQAHKAILAARSPVFSAMFEHEMEESKKNRVEINDVEPEVFKEMMCFIYTGKAPNLDKMADDLLAAADKYALERLKVMCEDALCSNLSVENAAEILILADLHSADQLKTQAVDFINYHASDVLETSGWKSMVVSHPHLVAEAYRSLASAQCPFLGPPRKRLKQS [F133L]

Variants of: B1
Conditions: with fgf19_human FGF19, O95750
Chain of fgf19_human FGF19, O95750 (O95750 whole entry): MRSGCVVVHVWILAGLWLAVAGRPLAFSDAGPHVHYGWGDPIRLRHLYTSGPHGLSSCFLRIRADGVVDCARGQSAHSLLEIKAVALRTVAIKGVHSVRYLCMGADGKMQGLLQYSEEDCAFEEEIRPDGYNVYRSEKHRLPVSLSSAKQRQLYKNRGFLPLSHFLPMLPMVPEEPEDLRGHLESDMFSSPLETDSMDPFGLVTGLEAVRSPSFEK

effect of a mutation on the interaction	Variant
with no effect	MSRVPSPPPPAEMSSGPVAESWCYTQIKVVKFSYMWTINNFSFCREEMGEVIKSSTFSSGANDKLKWCLRVNPKGLDEESKDYLSLYLLLVSCPKSEVRAKFKFSILNAKGEETKAMESQRAYRFVQGKDWGLKKFIRRDFLLDEANGLLPDDKLTLFCEVSVVQDSVNISGQNTMNMVKVPECRLADELGGLWENSRFTDCCLCVAGQEFQAHKAILAARSPVFSAMFEHEMEESKKNRVEINDVEPEVFKEMMCFIYTGKAPNLDKMADDLLAAADKYALERLKVMCEDALCSNLSVENAAEILILADLHSADQLKTQAVDFINYHASDVLETSGWKSMVVSHPHLVAEAYRSLASAQCPFLGPPRKRLKQS [F133L]

Variants of: B1
Conditions: with fgfp1_human FGFBP1, Q14512

effect of a mutation on the interaction	Variant
with no effect	MSRVPSPPPPAEMSSGPVAESWCYTQIKVVKFSYMWTINNFSFCREEMGEVIKSSTFSSGANDKLKWCLRVNPKGLDEESKDYLSLYLLLVSCPKSEVRAKFKFSILNAKGEETKAMESQRAYRFVQGKDWGLKKFIRRDFLLDEANGLLPDDKLTLFCEVSVVQDSVNISGQNTMNMVKVPECRLADELGGLWENSRFTDCCLCVAGQEFQAHKAILAARSPVFSAMFEHEMEESKKNRVEINDVEPEVFKEMMCFIYTGKAPNLDKMADDLLAAADKYALERLKVMCEDALCSNLSVENAAEILILADLHSADQLKTQAVDFINYHASDVLETSGWKSMVVSHPHLVAEAYRSLASAQCPFLGPPRKRLKQS [F133L]

— IntAct's records for PubMed 35512704
